Measurements as given in patent US7033593.

Columns and labels:
[1] = molecular target: T1, CD4-gp140 complex (HIV 89.6 gp140 bound to sCD4) (HIV 89.6 (Clade B) primary isolate), Q73372; experiment: SPR, peptide over gp140 captured on immobilised CD4
[2] = molecular target: soluble HIV 89.6 gp140 envelope protein (cleaved gp140 preparation) (HIV 89.6 (Clade B) primary isolate), Q73372; experiment: SPR, peptide over directly immobilised 89.6 gp140, no CD4
[3] = molecular target: T1, CD4-gp140 complex (HIV 89.6 gp140 bound …); experiment: SPR (FIG. 10D); the legend of the same figure prints 280 nM
[4] = molecular target: CD4-gp120 complex (HIV 89.6 gp120 bound to sCD4) (HIV 89.6 (Clade B) primary isolate), Q73372; experiment: SPR, row CD4-gp120
[5] = molecular target: T1, CD4-gp140 complex (HIV 89.6 gp140 bound …); experiment: SPR, row CD4-gp140
[6] = molecular target: T1, CD4-gp140 complex (HIV 89.6 gp140 bound …); experiment: SPR, row CD4+gp140 (89.6 gp140)
[7] = molecular target: T2, CD4-gp140-D1 complex (HIV 89.6 gp140 bound to sCD4 and the CCR5-D1 peptide) (HIV 89.6 (Clade B) primary isolate; human), Q73372; experiment: SPR, row CD4+gp140+R5-D1 (89.6 gp140)
[8] = molecular target: T1, CD4-gp140 complex (HIV 89.6 gp140 bound …); experiment: SPR, row CD4+gp140 (89.6 gp140); column headed Ka
[9] = molecular target: T1, CD4-gp140 complex (HIV 89.6 gp140 bound …); experiment: SPR, row CD4+gp140 (89.6 gp140); column headed Kd s-1
[10] = molecular target: T2, CD4-gp140-D1 complex (HIV 89.6 gp140 …); experiment: SPR, row CD4+gp140+R5-D1 (89.6 gp140); column headed Ka
[11] = molecular target: T1, CD4-gp140 complex (HIV 89.6 gp140 bound …); experiment: SPR, RU bound at steady state, row CD4+gp140 (89.6 gp140)
[12] = molecular target: T2, CD4-gp140-D1 complex (HIV 89.6 gp140 …); experiment: SPR, row CD4+gp140+R5-D1 (89.6 gp140); column headed Kd s-1
[13] = molecular target: T2, CD4-gp140-D1 complex (HIV 89.6 gp140 …); experiment: SPR, RU bound at steady state, row CD4+gp140+R5-D1 (89.6 gp140)

B1: CCR5-D1 peptide (peptide)
peptide: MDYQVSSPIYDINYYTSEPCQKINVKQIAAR
modifications: not checked
For B1, which Kd [1] is on record?
The Kd was 280 nM.

And the koff [1]?
The koff was 0.00256 s⁻¹.

What about the kon [1] of the same binder?
The kon was 9000 M⁻¹ s⁻¹.

What about the Kd [2] of the same binder?
Its Kd is 1000 nM.

And the koff [2]?
Its koff is 0.01 s⁻¹.

What about the Kd [3] of the same binder?
The Kd was 280 nM.

B2: HR-2 peptide T649Q26L (peptide)
peptide: WMEWDREINNYTSLIHSLIEESQNQLEKNEQELLEL
modifications: not checked
Which Kd [4] does the source give for B2 here?
Its Kd is 2540 nM.

And the koff [4]?
The koff was 0.0032 s⁻¹.

And the kon [4]?
The kon was 1260 M⁻¹ s⁻¹.

What about the t1/2 [4] of the same binder?
Its t1/2 is 3.62 min.

And the Kd [5]?
Its Kd is 1200 nM.

And the koff [5]?
Its koff is 0.0011 s⁻¹.

And the kon [5]?
The kon was 880 M⁻¹ s⁻¹.

And the t1/2 [5]?
Its t1/2 is 10.5 min.

What about the Kd [6] of the same binder?
The Kd was 2400 nM.

What about the t1/2 [6] of the same binder?
Its t1/2 is 0.8 min.

What about the Kd [7] of the same binder?
The Kd was 1000 nM.

What about the t1/2 [7] of the same binder?
Its t1/2 is 2.18 min.

What about the kon [8] of the same binder?
The kon was 6200 M⁻¹ s⁻¹.

And the koff [9]?
Its koff is 0.0146 s⁻¹.

What about the kon [10] of the same binder?
Its kon is 5100 M⁻¹ s⁻¹.

And the Rm [11]?
Its Rm is 53 RU.

What about the koff [12] of the same binder?
Its koff is 0.0053 s⁻¹.

What about the Rm [13] of the same binder?
Its Rm is 64 RU.
